Measured values published in paper doi:10.1101/2022.08.03.502284 (bioRxiv, 2022).

Target: the molecule itself
Test: ONE expansion microscopy of the purified protein

B1: full-length human GABAA receptor β3 subunit homopentamer (receptor)
chain: QSVNDPGNMSFVKETVDKLLKGYDIRLRPDFGGPPVCVGMNIDIASIDMVSEVNMDYTLTMYFQQYWRDKRLAYSGIPLNLTLDNRVADQLWVPDTYFLNDKKSFVHGVTVKNRMIRLHPDGTVLYGLRITTTAACMMDLRRYPLDEQNCTLEIESYGYTTDDIEFYWRGGDKAVTGVERIELPQFSIVEHRLVSRNVVFATGAYPRLSLSFRLKRNIGYFILQTYMPSILITILSWVSFWINYDASAARVALGITTVLTMTTINTHLRETLPKIPYVKAIDMYLMGCFVFVFLALLEYAFVNYIFFGRGPQRQKKLAEKTAKAKNDRSKSESNRVDAHGNILLTSLEVHNEMNEVSGGIGDTRNSAISFDNSGIQYRKQSMPREGHGRFLGDRSLPHKKTHLRRRSSQLKIKIPDLTDVNAIDRWSRIVFPFTFSLFNLVYWLYYVN
B1: binds.
